Key:
IgG (Gammanorm) [1] = assay: SPR (Biacore), variant amine-coupled to CM5 chip, Gammanorm as analyte, steady state affinity fit
IgG (Gammanorm) [2] = assay: SPR (Biacore), variant amine-coupled to CM5 chip, Gammanorm as analyte, 1:1 kinetic fit
Adalimumab [3] = assay: column dynamic binding capacity at 10% breakthrough, 6 min residence time; ligand density about 14.3 mg/ml
[4] = molecular target: Fab-fragment produced from Trastuzumab by papain cleavage; assay: column dynamic binding capacity at 10% breakthrough, Fab-fragment, 6 min residence time; ligand density 11.0
[5] = molecular target: Fab-fragment produced from Trastuzumab by papain cleavage; assay: column dynamic binding capacity at 10% breakthrough, Fab-fragment, 6 min residence time; ligand density 10.6
[6] = molecular target: Fab-fragment produced from Trastuzumab by papain cleavage; assay: column dynamic binding capacity at 10% breakthrough, Fab-fragment, 1 min residence time, duplicate columns
Adalimumab [7] = assay: column dynamic binding capacity at 10% breakthrough, 4 min residence time; ligand density about 14.3 mg/ml
[8] = molecular target: dAb (VL single domain antibody); assay: column dynamic binding capacity at 10% breakthrough, dAb, 2.4 min residence time, duplicate columns
Herceptin (Trastuzumab) = assay: column dynamic binding capacity at 10% breakthrough, Trastuzumab, 4 min residence time, at CIP cycle 35 (0.1 M NaOH)
[9] = molecular target: dAb (VL single domain antibody); assay: column dynamic binding capacity at 10% breakthrough, dAb, 10 min residence time, duplicate columns
[10] = molecular target: dAb (VL single domain antibody); assay: column dynamic binding capacity at 10% breakthrough, dAb, 4 min residence time, duplicate columns
[11] = molecular target: dAb (VL single domain antibody); assay: column dynamic binding capacity at 10% breakthrough, dAb, 6 min residence time, duplicate columns
[12] = molecular target: Fab-fragment produced from Trastuzumab by papain cleavage; assay: column dynamic binding capacity at 10% breakthrough, Fab-fragment, 6 min residence time, duplicate columns
[13] = molecular target: Fab-fragment produced from Trastuzumab by papain cleavage; assay: column dynamic binding capacity at 10% breakthrough, Fab-fragment, 10 min residence time, duplicate columns

Pentamer of SEQ ID NO:3 (ligand B2-1, pAM237) immobilized on cross-linked agarose beads (prototype separation matrix), sequence (chain): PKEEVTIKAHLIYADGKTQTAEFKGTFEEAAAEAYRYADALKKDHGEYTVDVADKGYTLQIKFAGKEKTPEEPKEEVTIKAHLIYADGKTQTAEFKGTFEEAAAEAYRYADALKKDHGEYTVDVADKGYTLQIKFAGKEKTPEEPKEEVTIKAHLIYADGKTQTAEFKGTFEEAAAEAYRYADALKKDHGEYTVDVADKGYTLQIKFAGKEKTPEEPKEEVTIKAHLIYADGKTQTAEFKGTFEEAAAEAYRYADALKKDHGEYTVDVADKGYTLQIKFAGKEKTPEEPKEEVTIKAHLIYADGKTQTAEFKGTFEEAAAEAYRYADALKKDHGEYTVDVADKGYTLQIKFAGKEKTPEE

Kd (IgG (Gammanorm) [1])	Kd (IgG (Gammanorm) [2])	Substance	other results
79 nM	15 nM	Protein L variant pAM240 (domain B5b-1; H10, H45, Q60)	–
41 nM	7 nM	Protein L variant pAM254 (domain B5b-2; H10, H45, Y60)	–
134 nM	59 nM	Protein L variant pAM256 (domain C1b-2; H10, H45, Y60)	–
187 nM	87 nM	Protein L variant pAM241 (domain C1-1; H10, H45, Q60)	–

Second part, the substance before the results:

Substance	Kd (IgG (Gammanorm) [1])	Kd (IgG (Gammanorm) [2])	other results
Pentamer of SEQ ID NO:3 (ligand B2-1, pAM237) immobilized on cross-linked agarose beads (prototype separation matrix)	–	–	DBC Qb10% (Adalimumab [3]): 67 mg/mL; DBC Qb10% 6 min RT [4]: 55.5; DBC Qb10% 6 min RT [5]: 56.8; DBC Qb10% [6]: 48.1; DBC Qb10% (Adalimumab [7]): 57 mg/mL
Capto™ L (Cytiva™), commercial Protein L matrix	–	–	DBC Qb10% [8]: 15.8; DBC Qb10% (Herceptin (Trastuzumab)): 21; DBC Qb10% [9]: 16.7; DBC Qb10% [10]: 16.2; DBC Qb10% [11]: 16.4; DBC Qb10% [6]: 16.9
Protein L variant pAM255 (domain C1-2; H10, H45, Y60)	324 nM	146 nM	–
Protein L variant pAM242 (domain C1b-1; H10, H45, Q60)	116 nM	49 nM	–
Protein L variant pAM236 (domain B1b-1; H10, H45, Q60)	130 nM	61 nM	–
TOYOPEARL® AF-r Protein L-650F (Tosoh)	–	–	DBC Qb10% [12]: 57.7; DBC Qb10% [8]: 23.7; DBC Qb10% [9]: 26; DBC Qb10% [10]: 25.2; DBC Qb10% [11]: 26.3; DBC Qb10% [13]: 58.1; DBC Qb10% [6]: 43.7
Protein L construct pAM114 (wt B3 domain; N10, N45, N60)	46 nM	11 nM	–
Protein L variant pAM250 (domain B1b-2; H10, H45, Y60)	99 nM	40 nM	–
